Series [1] in a line: IRBP-SEAP reporter in HeLa, normalised to EV. Conditions: glycan lost; control: WT OTX2, untreated.
Series [2] in a line: DSP crosslink, soluble vs pellet fractions, WB, HeLa. Conditions: control: DMSO vehicle.

Regarding OTX2: OSMI4, in series [1], the “other: transcriptional activity” value is on record as “no change”. Also, in series [2] (glycan lost), the “other: solubility (aggregation)” value is on record as “decreases”.
OTX2: Thiamet-G: the “other: solubility (aggregation)” value in series [2] (glycan gained) was “increases”.

Values taken from article PMC10661118.
